T1: R. norvegicus Nup54 of the published Nup58-Nup54 crystal construct (aa 456–494) (R. norvegicus, UniProt P70582 456-494)
T1 chain: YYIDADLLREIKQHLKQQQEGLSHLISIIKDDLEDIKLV

T2: R. norvegicus Nup62 (aa 322–525), entire predicted α-helical part (R. norvegicus, UniProt P17955 322-525)
T2 sequence: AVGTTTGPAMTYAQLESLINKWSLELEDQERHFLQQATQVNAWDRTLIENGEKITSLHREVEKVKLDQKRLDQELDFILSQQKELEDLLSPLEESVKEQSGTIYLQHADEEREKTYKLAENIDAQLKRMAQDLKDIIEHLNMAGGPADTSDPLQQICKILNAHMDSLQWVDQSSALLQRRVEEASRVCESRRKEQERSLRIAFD

B1: R. norvegicus Nup54 (aa 346–494), entire predicted α-helical part (domain or fragment)
chain: MTKQHQTRLDIISEDISELQKNQTTTMAKIAQYKRKLMDLSHRTLQVLIKQEIQRKSGYAIQAEEEQLRVQLDTIQGELNAPTQFKGRLNELMSQIRMQNHFGAVKSEEKYYIDADLLREIKQHLKQQQEGLSHLISIIKDDLEDIKLV

Assays:
[1] = molecular target: T1, R. norvegicus Nup54 of the published …; test: AUC
[2] = molecular target: B1; test: SEC
[3] = molecular target: the molecule itself; test: AUC
[4] = molecular target: T2, R. norvegicus Nup62 (aa 322–525), …; test: SEC

Row | stoichiometry N [2] | Binder | Kd [3] | also measured
1 | – | R. norvegicus Nup58 of the published Nup58-Nup54 crystal construct (aa 327–412) (domain or fragment) APADYFRVLVQQFEVQLQQYRQQIEELENHLATQANNSHITPQDLSMAMQKIYQTFVALAAQLQSIHENVKVLKEQYLSYRKMFLG | – | stoichiometry N [1]: 2 Nup58:Nup54
2 | 1 | R. norvegicus Nup58 (aa 239–415), entire predicted α-helical part (domain or fragment) not shown | – | –
3 | 1 | R. norvegicus Nup58 (aa 327–415), N-terminally truncated (domain or fragment) APADYFRVLVQQFEVQLQQYRQQIEELENHLATQANNSHITPQDLSMAMQKIYQTFVALAAQLQSIHENVKVLKEQYLSYRKMFLGDAG | – | –
4 | – | long rnNup58-Nup54-Nup62 complex (complex) chain 1: not shown chain 2: MTKQHQTRLDIISEDISELQKNQTTTMAKIAQYKRKLMDLSHRTLQVLIKQEIQRKSGYAIQAEEEQLRVQLDTIQGELNAPTQFKGRLNELMSQIRMQNHFGAVKSEEKYYIDADLLREIKQHLKQQQEGLSHLISIIKDDLEDIKLV chain 3: AVGTTTGPAMTYAQLESLINKWSLELEDQERHFLQQATQVNAWDRTLIENGEKITSLHREVEKVKLDQKRLDQELDFILSQQKELEDLLSPLEESVKEQSGTIYLQHADEEREKTYKLAENIDAQLKRMAQDLKDIIEHLNMAGGPADTSDPLQQICKILNAHMDSLQWVDQSSALLQRRVEEASRVCESRRKEQERSLRIAFD | 52 µM | –
5 | – | B1 | – | stoichiometry N [4]: 1
6 | – | short rnNup58-Nup54-Nup62 complex (complex) chain 1: APADYFRVLVQQFEVQLQQYRQQIEELENHLATQANNSHITPQDLSMAMQKIYQTFVALAAQLQSIHENVKVLKEQYLSYRKMFLGDAG chain 2: MTKQHQTRLDIISEDISELQKNQTTTMAKIAQYKRKLMDLSHRTLQVLIKQEIQRKSGYAIQAEEEQLRVQLDTIQGELNAPTQFKGRLNELMSQIRMQNHFGAVKSEEKYYIDADLLREIKQHLKQQQEGLSHLISIIKDDLEDIKLV chain 3: AVGTTTGPAMTYAQLESLINKWSLELEDQERHFLQQATQVNAWDRTLIENGEKITSLHREVEKVKLDQKRLDQELDFILSQQKELEDLLSPLEESVKEQSGTIYLQHADEEREKTYKLAENIDAQLKRMAQDLKDIIEHLNMAGGPADTSDPLQQICKILNAHMDSLQWVDQSSALLQRRVEEASRVCESRRKEQERSLRIAFD | 49.3 µM | –

— article PMC4004597 (Molecular Biology of the Cell, 2014)
